Laboratory results taken from patent US10876098B2, “Polynucleotide, host cell and a method to recombinantly produce the protein encoded by said polynucleotide having peroxygenative activity” (CONSEJO SUPERIOR DE INVESTIGACIONES CIENTIFICAS (CSIC), priority 2015, dated 2020).
One block for each molecule: values may come before it.

Experiments:
[1] = cited from earlier work
[2] = target: T1, Agrocybe aegerita peroxygenase AaeUPO1 variant SoLo (JaWa + F191S: V57A, L67F, V75I, F191S, G241D, I248V, R257K, F311L), SEQ ID NO: 42 (Cyclocybe aegerita, UniProt B9W4V6, F234S/F354L/G284D/I291V/L110F/R300K/V100A/V118I); assay: Kinetic constants, SoLo variant; conditions: SoLo vs parental JaWa, ABTS
T1 sequence (B9W4V6 44-371 V100A/L110F/V118I/F234S/G284D/I291V/R300K/F354L): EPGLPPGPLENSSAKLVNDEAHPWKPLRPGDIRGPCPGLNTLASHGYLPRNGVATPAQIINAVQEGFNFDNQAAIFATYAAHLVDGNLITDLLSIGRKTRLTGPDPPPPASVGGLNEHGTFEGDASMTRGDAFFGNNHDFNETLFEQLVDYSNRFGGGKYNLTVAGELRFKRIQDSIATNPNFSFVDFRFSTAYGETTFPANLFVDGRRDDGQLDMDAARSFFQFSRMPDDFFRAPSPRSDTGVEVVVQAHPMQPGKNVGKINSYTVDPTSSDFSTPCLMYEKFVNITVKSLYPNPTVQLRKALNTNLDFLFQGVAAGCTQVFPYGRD
Text: In order to calculate the values of Km and kcat, values of Vmax were represented at substrate concentrations and the hyperbole function was adjusted (using SigmaPlot 10.0, wherein the parameter a is equal to kcat and the parameter b, to Km).

[3] = Activity of W24F variants on peroxygenase substrates, flask culture supernatants; format: biochemical; conditions: relative to respective parental
Text: (§1) FIG. 5 W24F variants obtained by means of directed mutagenesis. A) Model built on the crystal structure of the AaeUPO1 enzyme (PDB access number: 2YOR), comprising the mutations of the JaWa variant as well as the W24F modification with respect to wild AaeUPO1. The model is shown without a surface, with a transparent surface and with an opaque surface, showing position W24. B) Activity of the W24F variants using different substrates with respect to their respective parentals, relativised to the PaDa-I activity. The experiments were carried out using 100 mL flask culture supernatants.

[4] = Activity of W24F variants on peroxidase substrates, flask culture supernatants; format: biochemical; conditions: all the tested substrates, relative to respective parental
Text: as §1

[5] = 4-AAP assay with propranolol in the presence of ascorbic acid (peroxygenase activity); format: biochemical; conditions: propranolol, in the presence of ascorbic acid
Method: (§2) FIG. 9 Assay of 4-AAP (4-aminoantipyrine) with different pure UPO variants (AaeUPO1, PaDa-1 and JaWa). […] Each reaction was performed in triplicate.
(§3) The mother plates were centrifuged (Eppendorf 5810R centrifuge, Germany) for 10 minutes at 3,500 RPM and 4° C. 20 μL of supernatant of these mother plates were transferred to two replica daughter plates with the help of a Freedom EVO liquid-handling robot (Tecan, Switzerland).
(§4) Without ascorbic, the plates were incubated for 30 minutes and with ascorbic for 60 minutes. […] The plates were briefly agitated and absorbance measured at 530 nm, using a plate reader for such purpose ([…]ax Plus 384, Molecular Devices, USA). The values were normalised against the parental of each plate. To rule out false positives, re-screenings were carried out, in addition to a third re-screening wherein kinetic stability was determined (T50) (P. Molina-Espeja, et al. Appl. Environ. Microbiol. 2014. 80, 3496-3507).

[6] = 4-AAP assay with propranolol in the absence of ascorbic acid (peroxidase activity on the product); format: biochemical
Method: as §2, §3, §4

[7] = Propranolol transformation reaction analysed by HPLC-PDA; format: biochemical; conditions: absence of ascorbic acid
Method: FIG. 13 Chromatogram showing the enzyme reactions.
(§5) The reactions were analysed by means of chromatography in reverse phase (HPLC). The equipment was composed of a tertiary pump (Varian-Agilent Technologies, USA) coupled to an autosampler (Merck Millipore, MA, USA); for the separation, a Zorbax Eclipse plus C18 column (15 cm×4.6 cm) at 40° C. was used and the detection was performed using a photodiode detector (PDA) (Varian, Agilent Technologies, USA). The mobile phase selected was a gradient from 10% methanol and 90% ddH2O (in both cases with 0.1% of acetic acid) up to 90% methanol and 10% ddH2O at a flow rate of 0.8 mL/min. The reaction was quantified at 280 nm (based on HPLC standards). […] The standard deviations were less than 5% in all cases.

[8] = Turnover with 5′-hydroxypropranolol as substrate, HPLC; format: biochemical; conditions: 0.03 μM enzyme, 0.4 mM 5′-hydroxypropranolol, 2 mM H2O2, absence of ascorbic acid
Method: FIG. 14 Turnover rates of AaeUPO, JaWa and SoLo. […] The disappearance of the product 5′-hydroxypropranolol can be observed due to the formation of its corresponding quinone by means of the peroxidase activity of the enzyme.
as §5

[9] = Thermostability assay (T50), culture supernatants, residual activity with ABTS; format: physicochemical; conditions: versus PaDa-I variant
Method: An individual S. cerevisiae colony was selected with the corresponding clone (grown in a SC drop-out minimal medium plate: 100 mL of 6.7% yeast nitrogen base, 100 mL of 19.2 g/L uracil-free amino acid supplement, 100 mL of 20% glucose, 1 mL of 25 g/L chloramphenicol and ddH2O up to 1,000 mL) was inoculated in 2 mL of selective minimal medium (as in the SC plate medium, but with 20 g of bacto agar and rafinose instead of galactose) and was incubated for 48 hour at 30° C. and 220 RPM. An aliquot of this culture was taken such that, upon inoculating it in 5 mL of new minimal medium, optical density at 600 nm would have a value of 0.25 (optical density, OD600=0.25). This starter was incubated until completing two full growth cycles (between 6 and 8 hours), at which time 1 mL of cells were taken to inoculate 9 mL of expression medium in a 100 mL flask (OD600=0.1). This culture of each clone was incubated for 72 hours at 25° C. and 220 RPM (at peak UPO activity; OD600=25-30), the cells were separated by centrifugation (10 minutes at 4,500 RPM and 4° C.) and supernatant was filtered (using a glass and nitrocellulose filter with a pore size of 0.45 μm). Appropriate dilutions of the supernatants were prepared so that aliquots of 20 μL would give rise to a linear response in kinetic mode. 50 μL of supernatant were used for each point in a temperature gradient created by means of thermocyclator, from 30 to 80° C. After incubating for 10 minutes, the aliquots were cooled in ice for 10 minute and tempered at room temperature for 5 minutes. […] The thermostability values were calculated in accordance with the ratio between the residual activities incubated at different temperatures and the value of initial activity at room temperature. The value of T50 was determined as the value of the temperature at which the protein loses 50% of it initial activity after incubating for 10 minutes.
An individual S. cerevisiae colony was selected with the corresponding clone (grown on a SC drop-out minimal medium plate: 100 mL of 6.7% yeast nitrogen base, 100 mL of 19.2 g/L uracil-free amino acid supplement, 100 mL of 20% glucose, 1 mL of 25 g/L chloramphenicol and ddH2O up to 1,000 mL), was inoculated in 3 mL of selective minimal medium (like the SC plate medium, but with 20 g of bacto agar and rafinose instead of galactose) and incubated for 48 hours at 30° C. and 220 RPM. […] The thermostability values were calculated in accordance with the ratio between the residual activities incubated at different temperatures and the value of initial activity at room temperature. The value of T50 was determined as as the temperature value at which the protein loses 50% of its initial activity after incubating for […].

[10] = Total turnover number (TTN) for synthesis of 5′-hydroxypropranolol from propranolol; format: biochemical
Method: FIG. 15 Calculation of the total turnover number (TTN) of AaeUPO and SoLo.
as §5

Molecule: c1ccc2ccccc2c1 [naphthalene]
- solubility of the naphthalene in water [1]: 31.7 µg/mL

Molecule: CCn1c(=NN=c2sc3cc(S(=O)(=O)O)ccc3n2CC)sc2cc(S(=O)(=O)O)ccc21 [ABTS, 2,2′-azino-bis(3-ethylbenzothiazolin-6-sulfonic acid)]
- affinity to the substrate with respect to its parental [2]: three fold worse

- reduction in the activity on naphthalene and NBD by the W24F mutation [3]: 50%
B1: PaDa-I-W24F: W24F variant obtained from the PaDa-I mutant, SEQ ID NO: 30 (protein)
chain: MKYFPLFPTLVYAVGVVAFPDYASLAGLSQQELDAIIPTLEAREPGLPPGPLENSSAKLVNDEAHPFKPLRPGDIRGPCPGLNTLASHGYLPRNGVATPAQIINAVQEGFNFDNQAAIFATYAAHLVDGNLITDLLSIGRKTRLTGPDPPPPASVGGLNEHGTFEGDASMTRGDAFFGNNHDFNETLFEQLVDYSNRFGGGKYNLTVAGELRFKRIQDSIATNPNFSFVDFRFFTAYGETTFPANLFVDGRRDDGQLDMDAARSFFQFSRMPDDFFRAPSPRSGTGVEVVVQAHPMQPGRNVGKINSYTVDPTSSDFSTPCLMYEKFVNITVKSLYPNPTVQLRKALNTNLDFLFQGVAAGCTQVFPYGRD
- reduction of peroxidase activity by the W24F mutation [4]: 60%

B2: SoLo: JaWa variant with added mutation F191S, SEQ ID NO: 42 (protein)
chain: MKYFPLFPTLVYAVGVVAFPDYASLAGLSQQELDAIIPTLEAREPGLPPGPLENSSAKLVNDEAHPWKPLRPGDIRGPCPGLNTLASHGYLPRNGVATPAQIINAVQEGFNFDNQAAIFATYAAHLVDGNLITDLLSIGRKTRLTGPDPPPPASVGGLNEHGTFEGDASMTRGDAFFGNNHDFNETLFEQLVDYSNRFGGGKYNLTVAGELRFKRIQDSIATNPNFSFVDFRFSTAYGETTFPANLFVDGRRDDGQLDMDAARSFFQFSRMPDDFFRAPSPRSDTGVEVVVQAHPMQPGKNVGKINSYTVDPTSSDFSTPCLMYEKFVNITVKSLYPNPTVQLRKALNTNLDFLFQGVAAGCTQVFPYGRD
- peroxygenase activity on microplate higher than its parental (JaWa) [5]: 30%
- decrease in peroxidase activity relative to parental (JaWa) [6]: more than two fold
- regioselectivity against 5′-hydroxypropranolol ([7]; 0.03 μM enzyme, 4 mM propranolol, 2 mM H2O2): 99%
- amount of 5′-hydroxypropranolol produced ([7]; compared among AaeUPO, PaDa-I, JaWa, SoLo): produce the largest amount of 5′-hydroxypropranolol
- 5′-hydroxypropranolol maintained without oxidising [8]: approximately 50%
- increase in thermostability (T50) with respect to PaDa-I [9]: 2 °C
- TTNs, With ascorbic acid ([10]; 0.03 μM enzyme, propranolol, 2 mM H2O2 added every 10 minutes, 4 mM ascorbic acid): 62,000
- TTNs, Without ascorbic acid ([10]; 0.03 μM enzyme, propranolol, 2 mM H2O2 added every 10 minutes, absence of ascorbic acid): 45,000
- increase in TTN for synthesis of 5′-hydroxypropranolol versus wild AaeUPO ([10]; absence of antioxidants): 15 fold

- reduction in the activity on naphthalene and NBD by the W24F mutation [3]: 50%
B3: JaWa-W24F: W24F variant obtained from the JaWa mutant, SEQ ID NO: 32 (protein)
chain: MKYFPLFPTLVYAVGVVAFPDYASLAGLSQQELDAIIPTLEAREPGLPPGPLENSSAKLVNDEAHPFKPLRPGDIRGPCPGLNTLASHGYLPRNGVATPAQIINAVQEGFNFDNQAAIFATYAAHLVDGNLITDLLSIGRKTRLTGPDPPPPASVGGLNEHGTFEGDASMTRGDAFFGNNHDFNETLFEQLVDYSNRFGGGKYNLTVAGELRFKRIQDSIATNPNFSFVDFRFFTAYGETTFPANLFVDGRRDDGQLDMDAARSFFQFSRMPDDFFRAPSPRSDTGVEVVVQAHPMQPGKNVGKINSYTVDPTSSDFSTPCLMYEKFVNITVKSLYPNPTVQLRKALNTNLDFLFQGVAAGCTQVFPYGRD
- reduction of peroxidase activity by the W24F mutation [4]: 60%
